Test results published in the domain aggregation screens of Martell et al. (2025).

Assay: soluble fraction after stress (log2 fold change); higher = more stays soluble; pooled small domains, quantitative proteomics
Conditions: stress: 75 degC
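Note: 20 min heating vs room temperature control held 20 min.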

Sequence | soluble fraction (log2)
HMLRGKNALMSQLDQIQGIGPKRKRALFNHFLTLDAIKQADVETLRQAPGMNLPAAEQVYRHFHM | -0.2
HMLRIIDYNRVVKDLNGLTPEQLLEKLAESFTVEDKGTEEYRPTELHNFSMYLGGHWYSLTAKPGTYDDND | -1.2
HMLRMTRNRQKLVEVLMESGRPLSADEIREAAGFASTDLVTVYRNLEAFQSAGLLQRIPLENGSQLFELT | -0.46
HMLRNDEAVMLGRRLLNKHLQAFSVQIKDISHQRIHDLLDELELESLDHLLDDIGLGNRSVFLVAQKLLQ | -1.48
HMLRQRVFRIIQNNINSKNYFVYTKQILAELAGISMRSLNRTLSELQNDRLIIVDSGTIRLFT | -3.12
HMLRVGASVTANGKYWYDSYGSKPFGTANNLSTTVTRIVPGNPYPIHIGSYGWLQESQIQIT | -1.67
HMLSDADLAAFREVFDLVDKDKSGAIEMEEVEELTKLLGLDLTRDEVELLVREIDKDGNGEVDFEEFLLVM | 0.00598
HMLSDHGLNDRQIMVIAGLMNGGTVTVRSIESQYGVSLNTARADVKMLVDAGLLTETGREVNMKVYSWSGK | -2.05
HMLSDSDTLRDLYLSEQIWNVGDLIRVKGKNDDTHPSWEIIRRGTNYITAIDENYKSHKVWLHDIDI | -1.3
HMLSEKELLELLNRAKSNYNGITKKGIEAIALKYQGYSNVEIANLYHVKANHISAWISRARSRLKADY | 0.07
HMLSNLYAVLGVGRRATPDEITAAFDAWNARADAGEPIDDPLWERVRYAWDVLSSPSRRDLYDSLVDDATG | -1.74
HMLSSREEKILNYLNEHQIITRKKAQELLETSQSTAGRVLKIMVDNGLIVQYGGSRSIWYELIK | -1.79
HMLSTGIIIGDNVALRKTASSNGGIITRLDEGTVVKILASNVNAEWYQVEAGTKTGYVNRLYVNID | -1.07
HMLSTGQLIRYYRKRAGMTQAELAEEVEMSEPGIRNYELGNRTPSKAQLSAIARGLGIEPEALI | -0.63
HMLSVKEQTYQIIKEKILNQEYPAGARININELAEELGISNSPIREALSLLEQQGLVISNRSSGATVT | -0.176
HMLSVLKNVDVNSLSDDKIKTYWQQIQKSGYTLDEVEVLAEAQGISPLKIAAFKRRVQSLQQSLQT | 0.311
HMLSYDDTVVIGRNLLENAMKQKNIALEQLTDEVLARLAKELQVESVEAMYAGIGSGKRPSSFIINRLEAH | -0.75
HMLSYFKIIKNGLVREGPASYYKIAENLEIGTIVQAFEKHDDWYLIKTHSGRIGWIVASDVTPQV | -3.62
HMLTAHEAILKELRKMLLTGVLSPGEAVRPEIIGESFGVSAVPVREALRILEGEGQVLNRPHKGYVVT | -0.904
HMLTANPEEVVNRLTSAGEVGVRPLLDVDDPINAISTLLAIREDVYKQFAQFDTVGKSPSEIAHEIDDFL | 0.11
HMLTEERLQIITDTVNSRSSVTIAELSRILDVSPSTVKRDLNILAEAGKITKVRGGAIALGE | -0.285
HMLTGDVDRYKDFFIALEKTSPVPIGFEKIIGGAHGYYHLEDKRIAIDEGMSELQTLKTAIHEIAHAKLHD | -0.312
HMLTGNTAKLFAHLVEVMNPKEFVKINRQTVIVEAGIPRGSVGAAIAKLLETGHLIANASGAYKLT | 0.278
HMLTIEEYLTQLKKLMKDRDAATVRDALSDAEEHLRNAMAGEDPSRLDGIIEEYGSPEEIAAAYKIMEEHT | -0.082
HMLTIQNYFNQVKNIDWEQVPAALSKGHQLVEGASQNNWSAYHSNANIQRVVEAYFQKLNDYLEKN | -0.0425
HMLTKGDRQSIRDSIIYMVGNAPRTLDYIVAESRYSEEDVIEAVRSLLSSHILSIDDSDMISLTRK | -1.02
HMLTNNYKNDKALRFAKNHGIHESNILKLVSLYENAPEKGFNAQSIAELLGITPRSASRILVKLLQHNLIR | -1.8
HMLTPSRVLPYLFEDSFFIDTLSLEKDQVVGFLEYIDERLPPQDLMNKSKEFELIDYLINESEAYLSQ | -0.00122

Sequence | soluble fraction (log2)
HMLTQEEITRRRGEILTAAMGVILRKGFLETSMREIAEAAGVGKSTLYDYFPSKDEIMIAYVVD | -0.97
HMLTRYNVNYYYNGEILQRRKVAEGSAAERITYLSGSLEVTDWYTEADLLRKYDFTEPVTGDLNLYAFARI | -1.42
HMLTSAQLAEIRQAVRAGQASVVEDLLKNGASPNFRMENGDTGFTYAVRADTPQVAEALLKSGKL | -0.00532
HMLTTIRKATVNDKTRIMEIYAYARQFMAEHGNPNQWKNNNPSEETIDNDIAKQEMYVIETDGEVHAVFY | -1.64
HMLVDWNYLEGKRGVTTTPLTPSGKARFGDDVVNVLSDGVLVSTGTPVRVLQVLGNRVLVEPLDG | -0.21
HMLVGRDPQALILGSMPSEKSLEEDEYYAHPRNRFWSLMNWLLAGNKTRPAYKTGIEILSSHGIALWV | -0.358
HMLVIMKTGASEEEIGRVIERIEGEGLSAHVSRGTERTVIGVIGQGVDVHRIAGVLGGMSGVESLVPIS | 0.0604
HMLVLAENMDVIFTRRTLDDHVVVDYKTTIGEMVKNDEIKGENMDELISAVEKDGYELVSSTSGEIIFLND | -1.01
HMLVVEPSAELKTIIDKTASFVARNGPEFEARIKNEQNNAKFSFLQPNDPFNPYYRAKIVELGGTV | 0.0126
HMLVYQRLDKDNFIFEGKTLLNDIYKILDIESNYFEAIRGEADSIAGLLLEIAKSIPTINTEF | -0.362
HMLYEDVQVPNVRYWKSRDAKKQLEDLGLRVLTEHVNDAYIQSDQVIRTSPEIGDTLRTGDTVTLYVSDG | 0.163
HMMKLSKRQEQIIAVVKEHQPVSGERISDILAVSRATLRSDLSFLTLSGILKASPKVGYTYES | -3.4
HMMLVKKMLNGIMMKEITIKELADQYDVSTRTIQLKIKKLGYEWDSKESIYRYVGKESEPLDVDFSTLI | -3
HMMQEIKLEVINNEELRIDNYINLAGIGLSRSYIQKLIKDGVILVNGKEVKSSYKVSLGDIISVQIPDPG | -0.436
HMMVIMRANATEPQIANVVAYVEKNGLNAHLSRGAERTVIGVVGDIRRVSKETFELMDGVDSVMRIS | -0.631
HMNADKEALIAAAYRNSLIENFGTENVERYEERFNKWADKHDRQGMPMYPTIEKWMNEDNIA | 0.0631
HMNADRIVGQTAKVIHPITPDEKGRVMVDNLDWAAAAQNRGESFEVGEEVSIVRIEGVTVYVQK | -0.234
HMNADTVIGKAGTVIEKIDNVAATGAVKIDGKVWTARSERDNITIDEGTLVKAMAIEGVKLIVEPVT | 0.139
HMNAEGLIGREAVALTAVDAHGGRVRLGGEEWSARLSKENGGVSRLSVGDPVRVTDIDGAIAVVAP | 0.118
HMNAEQLAQVRRQKIGFIFQDFRLFPEYTVRDNILIPFYLDHRAPDEQMLHKLTGILGIAGKLHSRPAQL | -0.181
HMNAKVVAPIPGTVLSIDIKVGDVIKIGDRLLVLEAMKMENNIASEKSGTVTAVHVKVGQQVLQNELMIEL | -2.17
HMNALNDLESKIFEEVVKAPEIIMNMTIREFASTVHASPTTIVRMTHKLGFSGWNELKTYLQKQKHQIS | -1.72
HMNALREVNTSILNVRSGAGTNYSKIGSLTQATRVSVISESNGWSKINYNGKVGYVSSQYLS | -1.53
HMNAMKPVLTVSLGVHTDSLSRRLNEEGIIYRWQQAASEQLLLVDSESSSERIAELIHDWRLEQSSS | -0.0158
HMNANTILNSQRILTQLGFNPGPIDGAFGAKTKGALNAFYTSIGKSYDGLLDSNELVELQKALDVSGLKN | -0.524
HMNDADAHASVDAALKHLEALAETTPEVRAALELVRRGPDGRVTVDSFARVAEALREISIAVGAS | 0.024
HMNDELMEQIDEWHKAEKHQEIIDALEQIPEAERDFETTGFLARAYNNIEEYAKAADLLESVRE | 0.0973
